How the values were obtained:
Test in all cases: ninhydrin release assay, A570, Lineweaver-Burk
Type in all cases: biochemical, Aspergillus niger
Conditions in all cases: 0.1 mol L^−1 disodium hydrogen phosphate-citric acid buffer, pH 6.0, 45 °C
[1] = tested on: T1, CC(C)C[C@H](NC(=O)[C@H](Cc1ccccc1)NC(=O)OCc1ccccc1)C(=O)O
T1 construct: ORF 1479 bp, 492 residues with predicted 19-residue signal peptide; secreted from Pichia pastoris GS115 (pPIC9K), purified; no tag told
Source text: (§1) ninhydrin release assay, A570, Lineweaver-Burk on CapA (serine carboxypeptidase)

[2] = tested on: T2, C[C@H](NC(=O)CNC(=O)OCc1ccccc1)C(=O)O
T2 construct: ORF 1479 bp, 492 residues with predicted 19-residue signal peptide; secreted from Pichia pastoris GS115 (pPIC9K), purified; no tag told
Source text: as §1

[3] = tested on: T3, C[C@H](NC(=O)OCc1ccccc1)C(=O)N[C@@H](CCC(=O)O)C(=O)O
T3 construct: ORF 1479 bp, 492 residues with predicted 19-residue signal peptide; secreted from Pichia pastoris GS115 (pPIC9K), purified; no tag told
Source text: as §1

[4] = tested on: T4, C[C@H](NC(=O)OCc1ccccc1)C(=O)N[C@@H](CCCCN)C(=O)O
T4 construct: ORF 1479 bp, 492 residues with predicted 19-residue signal peptide; secreted from Pichia pastoris GS115 (pPIC9K), purified; no tag told
Source text: as §1

[5] = tested on: T5, O=C(O)CNC(=O)[C@@H]1CCCN1C(=O)OCc1ccccc1
T5 construct: ORF 1479 bp, 492 residues with predicted 19-residue signal peptide; secreted from Pichia pastoris GS115 (pPIC9K), purified; no tag told
Source text: as §1

## CapA (serine carboxypeptidase) (Aspergillus niger CBS 513.88)
[1]
  Km: 63 ± 10 µM
  Vmax: 54800 µM/min/mg
  kcat: 11.7 ± 1.02 s⁻¹
  kcat/Km: 186000 ± 16700 M⁻¹ s⁻¹
[2]
  Km: 240 ± 20 µM
  Vmax: 42700 µM/min/mg
  kcat: 1.71 ± 0.08 s⁻¹
  kcat/Km: 7130 ± 480 M⁻¹ s⁻¹
[3]
  Km: 1440 ± 90 µM
  Vmax: 6490 µM/min/mg
  kcat: 0.18 ± 0.01 s⁻¹
  kcat/Km: 130 ± 10 M⁻¹ s⁻¹
[4]
  Km: 180 ± 30 µM
  Vmax: 41900 µM/min/mg
  kcat: 2.32 ± 0.17 s⁻¹
  kcat/Km: 12900 ± 1130 M⁻¹ s⁻¹
[5]
  Km: 1170 ± 210 µM
  Vmax: 9770 µM/min/mg
  kcat: 0.47 ± 0.02 s⁻¹
  kcat/Km: 400 ± 50 M⁻¹ s⁻¹

Source: article PMC8455534, “A new carboxypeptidase from Aspergillus niger with good thermostability, pH stability and broad substrate specificity” (Scientific Reports, 2021)
